Patent publication US7361341B2, “Methods of treating cancer using antibodies that immunospecifically bind to trail receptors” (Human Genome Sciences, Inc., priority 2001, dated 2008)

Assays:
Experiment in all cases: Specificity phage ELISA
Format in all cases: binding
Conditions in all cases: antigen coated at 1 μg/ml, absorbance at 450 nm
TR5 = molecular target: T1, TR5 (Homo sapiens, UniProt O14798, I229T)
T1 sequence (O14798 with tags, fused parts or gaps I229T limits assumed): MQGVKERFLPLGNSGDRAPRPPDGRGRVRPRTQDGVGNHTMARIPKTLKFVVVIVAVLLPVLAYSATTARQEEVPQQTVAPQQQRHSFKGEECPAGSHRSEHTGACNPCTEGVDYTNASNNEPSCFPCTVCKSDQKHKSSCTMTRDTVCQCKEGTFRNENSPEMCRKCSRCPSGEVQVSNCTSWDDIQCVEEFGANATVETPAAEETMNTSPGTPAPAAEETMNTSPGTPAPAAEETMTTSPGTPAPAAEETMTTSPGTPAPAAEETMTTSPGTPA
Description: (§1) To determine the specificity of the antibodies which bound TR4, a phage ELISA was performed against human TR4 fusion protein, and a panel of related and unrelated human antigens TR7, TR5, TR10, BlyS (described in International Patent Publication Numbers WO98/18921 and WO00/50597, which are both herein icorprated by reference in their entireties), irrelevant fusion protein and BSA.
(§2) Individual E. coli colonies containing phagemid were inoculated into 5 ml 2YTAG and incubated at 37° C. for 4 hours, shaking. M13K07 helper phage (Pharmacia) was added to each tube to an moi of 10 and incubated for […], the first 30 minutes static and the final 30 minutes with gentle shaking. Cells were pelleted by centrifugation at 3,500 rpm for 10 minutes. The phage containing supernatant (5 ml) was carefully transferred to a fresh tube, 1 ml of 6 MPBS added and then incubated at room temperature for 1 hour to pre-block the phage prior to ELISA.
(§3) Flexible 96-well plates (Falcon) were coated overnight at 4° C. with each antigen (1 μg/ml). All antigens were coated in PBS. After coating, the solutions were removed from the wells, and the plates were blocked for 1 hour at room temperature in MPBS. The plates were washed 3 times with PBS and then 50 μl of pre-blocked phage was added to each well. The plates were incubated at room temperature for 1 hour and then washed with 3 changes of PBST followed by 3 changes of PBS.
(§4) To each well, 50 μl of an anti-M13-HRP conjugate (Pharmacia) at a 1 in 5000 dilution in MPBS was added and the plates incubated at room temperature for 1 hour. Each plate was washed three times with PBST followed by three times with PBS.
(§5) Fifty μl of TMB substrate was then added to each well, and incubated at room temperature for 30 minutes or until colour development. The reaction was stopped by the addition of 25 μl of 0.5 M H2SO4. The signal generated was measured by reading the absorbance at 450 nm (A450) using a microtitre plate reader (Bio-Rad 3550).

TR7 = TR7 (Homo sapiens, UniProt O14763)
Description: as §1, §2, §3, §4, §5

human TR4 fusion protein = molecular target: T2, human TR4 fusion protein (Homo sapiens, UniProt O00220, H141R/R209T)
T2 construct: made in house
Description: as §1, §2, §3, §4, §5

TR10 = molecular target: T3, TR10 (Homo sapiens, UniProt Q9UBN6, L310S)
T3 sequence (Q9UBN6 56-386 L310S): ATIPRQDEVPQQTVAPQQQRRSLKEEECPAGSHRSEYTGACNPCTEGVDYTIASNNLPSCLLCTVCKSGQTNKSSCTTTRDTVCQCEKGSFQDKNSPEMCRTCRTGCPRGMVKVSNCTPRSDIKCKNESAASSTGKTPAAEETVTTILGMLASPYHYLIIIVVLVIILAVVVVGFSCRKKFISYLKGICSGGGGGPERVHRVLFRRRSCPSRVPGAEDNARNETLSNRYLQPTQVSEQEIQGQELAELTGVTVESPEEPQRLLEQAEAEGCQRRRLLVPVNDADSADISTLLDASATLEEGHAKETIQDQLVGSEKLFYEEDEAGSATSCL
Description: as §1, §2, §3, §4, §5

[1] = tested on: irrelevant fusion protein
Description: as §1, §2, §3, §4, §5

BLyS = BLyS (Homo sapiens, UniProt Q9Y275)
Description: as §1, §2, §3, §4, §5

T2 sequence (O00220 109-240 H141R/R209T): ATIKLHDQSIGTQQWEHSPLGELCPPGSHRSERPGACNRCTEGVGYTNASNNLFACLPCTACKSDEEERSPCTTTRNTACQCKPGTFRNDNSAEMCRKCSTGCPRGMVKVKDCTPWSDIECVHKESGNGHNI
Chain of BLyS (Q9Y275 whole entry): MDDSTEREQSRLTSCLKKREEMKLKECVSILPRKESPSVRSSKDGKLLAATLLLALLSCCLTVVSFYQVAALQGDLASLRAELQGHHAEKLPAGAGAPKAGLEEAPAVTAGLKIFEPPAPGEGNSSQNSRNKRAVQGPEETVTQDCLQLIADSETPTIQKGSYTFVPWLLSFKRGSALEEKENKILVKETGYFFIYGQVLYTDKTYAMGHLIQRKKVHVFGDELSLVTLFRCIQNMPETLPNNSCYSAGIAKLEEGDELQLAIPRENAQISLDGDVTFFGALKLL
Chain of TR7 (O14763 56-411 isoform O14763-2 limits assumed): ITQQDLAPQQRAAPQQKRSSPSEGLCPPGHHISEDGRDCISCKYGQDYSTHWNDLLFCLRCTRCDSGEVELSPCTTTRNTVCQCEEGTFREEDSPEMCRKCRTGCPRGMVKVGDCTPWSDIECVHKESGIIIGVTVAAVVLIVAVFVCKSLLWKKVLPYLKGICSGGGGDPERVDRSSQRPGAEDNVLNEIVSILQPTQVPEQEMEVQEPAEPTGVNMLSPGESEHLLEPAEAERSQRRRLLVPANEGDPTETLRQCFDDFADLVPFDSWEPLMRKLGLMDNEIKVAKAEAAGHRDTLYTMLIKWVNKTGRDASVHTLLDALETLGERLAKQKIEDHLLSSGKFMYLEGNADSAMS

B1: T1014B11: scFv that immunospecifically binds TRAIL receptor TR4, protein SEQ ID NO:47 (protein)
scFv: EVQLVQSGAEVKKPGASVKVSCKISGDSFTAYFIHWLRQAPGEGLEWMGWFNPISGTAGSPQKFHGRVAMTRDTSISTAYMELTRLASDDTAIYYCARQHHSNTFDPWGQGTLVTVSSGGGGSGGGGSGGGGSAQSALTQPASVSGSPGQSITISCTGTNSDVGGYNYVSWYQQHPGKAPKLMIYEVNNRPSGVSNRFSGSKSGNTASLTISGLQADDEADYYCSSYTTSNTWVFGGGTKLTVLG
modifications: T1014B11 scFv
bind: binding to TR4 (human TR4 fusion protein)
not: binding to TR5 (TR5) | binding to TR7 (TR7) | binding to TR10 (TR10) | binding to an irrelevant fusion protein [1] | binding to BLyS (BLyS)
